Source: patent US20190338048A1
Read-outs that look alike come from different tables or passages of the source. Values belong to the substance of their own block, whether it stands above or below them.

Tests used:
[1] = target: CAT-2200 lambda light chain K129T_V133D; assay: LCCA, SPR
[2] = target: Pertuzumab kappa light chain S131K_V133G_S176R; assay: LCCA, SPR
[3] = target: Pertuzumab kappa light chain S131R_V133G_S176R; assay: LCCA, SPR
[4] = target: Pertuzumab kappa light chain S131K_V133G_S176R; assay: LCCA, SPR; remark: listed apart in the source
[5] = target: Pertuzumab kappa light chain S131R_V133G_S176R; assay: LCCA, SPR; remark: listed apart in the source
[6] = target: CAT-2200 lambda light chain K129T_V133D; assay: LCCA, SPR; remark: listed apart in the source
[7] = target: CAT-2200 lambda light chain K129T_T131D_V133D; assay: LCCA, SPR tag read-out
[8] = target: CAT-2200 lambda light chain K129T_V133D_Y178T; assay: LCCA, SPR tag read-out
[9] = target: CAT-2200 lambda light chain V133D_Y178T; assay: LCCA, SPR tag read-out
[10] = target: Pertuzumab kappa light chain S131K_V133G_S176R; assay: LCCA, SPR tag read-out
[11] = target: Pertuzumab kappa light chain S131R_V133G_L135W_S176R; assay: LCCA, SPR tag read-out
[12] = target: Pertuzumab kappa light chain S131R_V133G_S176R; assay: LCCA, SPR tag read-out
[13] = target: Pertuzumab kappa light chain S131K_V133G_S176R; assay: LCCA, SPR tag read-out; remark: listed apart in the source
[14] = target: Pertuzumab kappa light chain S131R_V133G_L135W_S176R; assay: LCCA, SPR tag read-out; remark: listed apart in the source
[15] = target: Pertuzumab kappa light chain S131R_V133G_L135W_S176R; assay: LCCA, SPR tag read-out; remark: listed apart in the source
[16] = target: CAT-2200 lambda light chain S122D_K129T_V133D_Y178T; assay: LCCA, SPR tag read-out
[17] = target: CAT-2200 lambda light chain S122D_K129T_V133D; assay: LCCA, SPR tag read-out
[18] = target: CAT-2200 lambda light chain S122D_V133D_Y178T; assay: LCCA, SPR tag read-out
[19] = target: Pertuzumab kappa light chain S121K_S131R_V133G_S176R; assay: LCCA, SPR tag read-out
[20] = target: Pertuzumab kappa light chain S121K_S131R_V133G_S176R; assay: LCCA, SPR tag read-out; remark: listed apart in the source
[21] = target: Pertuzumab kappa light chain S121K_S131R_V133G_S176R; assay: LCCA, SPR tag read-out; remark: listed apart in the source
[22] = target: Pertuzumab kappa light chain V133G_L135A_S176D_T180E; assay: LCCA, SPR tag read-out
[23] = target: CAT-2200 lambda light chain S122D_Y178K; assay: LCCA, SPR tag read-out
[24] = target: Pertuzumab kappa light chain S121K_V133G_S176D_T180E; assay: LCCA, SPR tag read-out
[25] = target: Pertuzumab kappa light chain S121K_V133G_S176D_T180E; assay: LCCA, SPR tag read-out; remark: listed apart in the source
[26] = target: Pertuzumab kappa light chain S121K_V133G_S176D_T180E; assay: LCCA, SPR tag read-out; remark: listed apart in the source
[27] = target: Pertuzumab kappa light chain Q124R_L135W_Q160K_T178R; assay: LCCA
[28] = target: Pertuzumab kappa light chain Q124R_L135W_Q160K_T178R; assay: LCCA, SPR tag read-out
[29] = target: Pertuzumab kappa light chain Q124R_L135W_T178R; assay: LCCA, SPR tag read-out
[30] = target: Pertuzumab kappa light chain Q124R_Q160R_T178R; assay: LCCA, SPR tag read-out
[31] = target: Pertuzumab kappa light chain Q124R_T178R; assay: LCCA, SPR tag read-out
[32] = target: Pertuzumab kappa light chain Q124R_L135W_T178R; assay: LCCA, SPR tag read-out; remark: listed apart in the source
[33] = target: Pertuzumab kappa light chain Q124R_T178R; assay: LCCA, SPR tag read-out; remark: listed apart in the source
[34] = target: Pertuzumab kappa light chain Q124R_T178R; assay: LCCA, SPR tag read-out; remark: listed apart in the source
[35] = target: Pertuzumab kappa light chain Q124R_T178R; assay: LCCA, SPR tag read-out; remark: listed apart in the source
[36] = target: Pertuzumab kappa light chain Q124R_Q160R_T178R; assay: LCCA, SPR tag read-out; remark: listed apart in the source
[37] = target: Pertuzumab kappa light chain Q124R_T178R; assay: LCCA, SPR tag read-out; remark: listed apart in the source
[38] = target: Pertuzumab kappa light chain Q124R_L135W_T178R; assay: LCCA, SPR tag read-out; remark: listed apart in the source
[39] = target: CAT-2200 lambda light chain S122D_K129T_S180E; assay: LCCA
[40] = target: Pertuzumab kappa light chain S121K_Q124R_Q160K_T178R; assay: LCCA
[41] = target: Pertuzumab kappa light chain S121K_Q124R_T178R; assay: LCCA
[42] = target: CAT-2200 lambda light chain S122D_K129T_S180E; assay: LCCA; remark: listed apart in the source
[43] = target: CAT-2200 lambda light chain S122D_K129T_S176D_Y178T; assay: LCCA, SPR tag read-out
[44] = target: CAT-2200 lambda light chain S122D_K129T_S176E_Y178E; assay: LCCA, SPR tag read-out
[45] = target: Pertuzumab kappa light chain S121K_Q124R_T178R; assay: LCCA, SPR tag read-out
[46] = target: Pertuzumab kappa light chain S121K_Q124R_T178R; assay: LCCA, SPR tag read-out; remark: listed apart in the source
[47] = target: Pertuzumab kappa light chain S121K_Q124R_T178R; assay: LCCA, SPR tag read-out; remark: listed apart in the source

Substance: Pertuzumab Fab heavy chain L124E_K145T_Q179E
H2L2:H2L1 normalized median ratio [1]: 8%
H2L2:H2L1 normalized median scalar value ln(r1/f1) [2]: 2.38
H2L2:H2L1 normalized median scalar value ln(r1/f1) [3]: 3.12
H2L2:H2L1 normalized median scalar value ln(r1/f1) [4]: 2.18
H2L2:H2L1 normalized median scalar value ln(r1/f1) [5]: 2.72
H2L2:H2L1 normalized median ratio [6]: 4%
H2L2:H2L1 normalized median ratio [7]: 4%
H2L2:H2L1 normalized median ratio [8]: 16%
H2L2:H2L1 normalized median ratio [9]: 16%
H2L2:H2L1 median scalar value [10]: 3.26 ln(ratio)
H2L2:H2L1 median scalar value [11]: 1.71 ln(ratio)
H2L2:H2L1 median scalar value [12]: 4.11 ln(ratio)
H2L2:H2L1 median scalar value [13]: 3.71 ln(ratio)
H2L2:H2L1 median scalar value [14]: 2.31 ln(ratio)
H2L2:H2L1 median scalar value [15]: 1.7 ln(ratio)

Substance: Pertuzumab Fab heavy chain L124R_S186K_V190F
H2L2:H2L1 median scalar value [22]: -0.44 ln(ratio)

Substance: Pertuzumab Fab heavy chain L143E_K145T_Q179E
H2L2:H2L1 median scalar value [27]: 0.77 ln
H2L2:H2L1 median scalar value [28]: 2.02 ln(ratio)
H2L2:H2L1 median scalar value [29]: 2.64 ln(ratio)
H2L2:H2L1 median scalar value [30]: 2.79 ln(ratio)
H2L2:H2L1 median scalar value [31]: 3.52 ln(ratio)
H2L2:H2L1 median scalar value [32]: 2.54 ln(ratio)
H2L2:H2L1 median scalar value [33]: 3.01 ln(ratio)
H2L2:H2L1 median scalar value [34]: 2.74 ln(ratio)
H2L2:H2L1 median scalar value [35]: 3.1 ln(ratio)
H2L2:H2L1 median scalar value [36]: 2.58 ln(ratio)
H2L2:H2L1 median scalar value [37]: 3.63 ln(ratio)
H2L2:H2L1 median scalar value [38]: 2.68 ln(ratio)

Substance: Pertuzumab Fab heavy chain L143E_K145T_Q179E_K228D
H2L2:H2L1 normalized median ratio [39]: 33%
H2L2:H2L1 median scalar value [40]: 1.15 ln
H2L2:H2L1 normalized median ratio [40]: 75%
H2L2:H2L1 median scalar value [41]: 0.72 ln
H2L2:H2L1 normalized median ratio [41]: 67%
H2L2:H2L1 normalized median ratio [42]: 25%
H2L2:H2L1 normalized median ratio [43]: 8%
H2L2:H2L1 normalized median ratio [44]: 5%
H2L2:H2L1 normalized median ratio [17]: 34%
H2L2:H2L1 median scalar value [45]: 3.5 ln(ratio)
H2L2:H2L1 normalized median ratio [45]: 95%
H2L2:H2L1 median scalar value [46]: 2.56 ln(ratio)
H2L2:H2L1 normalized median ratio [46]: 92%
H2L2:H2L1 median scalar value [47]: 1.1 ln(ratio)
H2L2:H2L1 normalized median ratio [47]: 66%

The next lines start with the values.

H2L2:H2L1 normalized median ratio [16]: 8%
H2L2:H2L1 normalized median ratio [17]: 5%
H2L2:H2L1 normalized median ratio [18]: 14%
H2L2:H2L1 median scalar value [19]: 1.9 ln(ratio)
H2L2:H2L1 normalized median ratio [19]: 86%
H2L2:H2L1 median scalar value [20]: 3.08 ln(ratio)
H2L2:H2L1 normalized median ratio [20]: 95%
H2L2:H2L1 median scalar value [21]: 2.42 ln(ratio)
H2L2:H2L1 normalized median ratio [21]: 92%
Substance: Pertuzumab Fab heavy chain L124E_K145T_Q179E_K228D

H2L2:H2L1 normalized median ratio [23]: 34%
H2L2:H2L1 median scalar value [24]: 1.83 ln(ratio)
H2L2:H2L1 normalized median ratio [24]: 66%
H2L2:H2L1 median scalar value [25]: -0.49 ln(ratio)
H2L2:H2L1 median scalar value [26]: -0.52 ln(ratio)
Substance: Pertuzumab Fab heavy chain L124R_S186R_K228D
